First the molecules themselves.
B3: bovine α1-acid glycoprotein (AGP) (natural protein)
chain: QSPECANLMTVAPITNATMDLLSGKWFYIGSAFRNPEYNKSARAIQAAFFYLEPRHAEDKLITREYQTIEDKCVYNCSFIKIYRQNGTLSKVESDREHFVDLLLSKHFRTFMLAASWNGTKNVGVSFYADKPEVTQEQKKEFLDVIKCIGIQESEIIYTDEKKDACGPLEKQHEEERKKETEAS
modifications: glycans that contain both Neu5Ac and Neu5Gc
notes: also called Bovine α1-AGP; bovine AGP

Common to all, as to details: both partners purified
In experiment [1] the target is B3. Description: SPR; Biacore T100; SubB or SubB mutant immobilised on a series S CM5 chip (flow cell 1 blank); AGP flowed over, 0.01-100 µM in range finding; single cycle kinetics. For orientation: In SPR one partner is held on a chip, and binding of the other changes the refractive index at the surface.
Experiment [2] addresses B3. Description: SPR.
A further experiment addresses T1, SubB ΔS106/ΔT107 (Escherichia coli, UniProt Q6EZC3 24-141, ΔS106/ΔT107).
T1 construct: source: E. coli BL21(DE3), pET-23(+), purified (Ni-NTA)
Description: SPR.

4 molecules from PMC5431456, “Structure aided design of a Neu5Gc specific lectin” (Scientific Reports, 2017) can be followed below.

The term Kd denotes the constant that tells how readily two partners part at equilibrium.

B1: Subtilase cytotoxin B subunit (SubB), wild type (natural protein)
chain: EWTGDARDGMFSGVVITQFHTGQIDNKPYFCIEGKQSAGSSISACSMKNSSVWGASFSTLYNQALYFYTTGQPVRIYYKPGVWTYPPFVKALTSNALVGLSTCTTSTECFGPDRKKNS
notes: also called Wild type SubB; wild-type SubB; source: E. coli BL21(DE3), pET-23(+), purified (Ni-NTA)
Turning to B1, the Kd in experiment [1] came to 156 ± 22 nM.

B2: SubB S106A/T107A (natural protein)
chain: EWTGDARDGMFSGVVITQFHTGQIDNKPYFCIEGKQSAGSSISACSMKNSSVWGASFSTLYNQALYFYTTGQPVRIYYKPGVWTYPPFVKALTSNALVGLSTCTTAAECFGPDRKKNS
notes: source: E. coli BL21(DE3), pET-23(+), purified (Ni-NTA)
On to B2, for which the affinity in experiment [2], expressed as Kd, was 164 ± 10 nM.

Regarding B3, binding with SubB ΔS106/ΔT107 was characterised by a dissociation constant (Kd) of 115 ± 37 nM.

B4: SubB ΔS106/ΔT107/E108D (natural protein)
chain: EWTGDARDGMFSGVVITQFHTGQIDNKPYFCIEGKQSAGSSISACSMKNSSVWGASFSTLYNQALYFYTTGQPVRIYYKPGVWTYPPFVKALTSNALVGLSTCTTDCFGPDRKKNS
notes: as for B2
With B4, in experiment [2], the Kd stood at 32.5 ± 2.6 nM.
